Assay results as given in US20180155451A1 (published 2018).

B1: GpH7-B3 variant Q295_10E/GpL16-k0 (antibody, human IgG1, kappa)
heavy: not shown
light: DIVMTQSPLSLPVTPGEPASISCQASESLVHSNRNTYLHWYLQKPGQSPQLLIYKVSNRFSGVPDRFSGSGSGTDFTLKISRVEAEDVGVYYCSQNTHVPPTFGQGTKVEIERTVAAPSVFIFPPSDEQLKSGTASVVCLLNNFYPREAKVQWKVDNALQSGNSQESVTEQDSKDSTYSLSSTLTLSKADYEKHKVYACEVTHQGLSSPVTKSFNRGEC
notes: homodimerized antibody, mutation in both H chains; also called Q295_10E Ho Ab
B2: GpH7-B3 variant K334_16H/GpL16-k0 (antibody, human IgG1, kappa)
heavy: not shown
light: B1 light
notes: homodimerized antibody, mutation in both H chains; also called K334_16H Ho Ab
B3: GpH7-B3 variant S337_18N/GpL16-k0 (antibody, human IgG1, kappa)
heavy: not shown
light: B1 light
notes: homodimerized antibody, mutation in both H chains; also called S337_18N Ho Ab
B4: GpH7-B3 variant L328_15Y/GpL16-k0 (antibody, human IgG1, kappa)
heavy: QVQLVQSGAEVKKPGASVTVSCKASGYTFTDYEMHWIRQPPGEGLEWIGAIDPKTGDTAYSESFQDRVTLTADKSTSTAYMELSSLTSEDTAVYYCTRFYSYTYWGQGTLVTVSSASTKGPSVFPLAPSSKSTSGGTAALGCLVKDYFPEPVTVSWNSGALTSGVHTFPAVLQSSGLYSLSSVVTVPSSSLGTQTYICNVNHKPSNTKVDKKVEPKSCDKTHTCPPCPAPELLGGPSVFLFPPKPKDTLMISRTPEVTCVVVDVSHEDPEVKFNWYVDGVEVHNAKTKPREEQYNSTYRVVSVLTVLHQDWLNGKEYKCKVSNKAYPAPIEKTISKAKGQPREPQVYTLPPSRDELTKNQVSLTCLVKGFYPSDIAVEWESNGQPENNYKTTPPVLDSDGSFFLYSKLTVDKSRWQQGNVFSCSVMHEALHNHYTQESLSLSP
light: B1 light
notes: homodimerized antibody, mutation in both H chains; also called L328_15Y Ho Ab
B5: GpH7-B3 variant K334_04F/GpL16-k0 (antibody, human IgG1, kappa)
heavy: not shown
light: B1 light
notes: homodimerized antibody, mutation in both H chains; also called K334_04F Ho Ab
B6: GpH7-B3 variant P271_01G/GpL16-k0 (antibody, human IgG1, kappa)
heavy: not shown
light: B1 light
notes: homodimerized antibody, mutation in both H chains; also called P271_01G Ho Ab
B7: GpH7-B3 variant K334_05P/GpL16-k0 (antibody, human IgG1, kappa)
heavy: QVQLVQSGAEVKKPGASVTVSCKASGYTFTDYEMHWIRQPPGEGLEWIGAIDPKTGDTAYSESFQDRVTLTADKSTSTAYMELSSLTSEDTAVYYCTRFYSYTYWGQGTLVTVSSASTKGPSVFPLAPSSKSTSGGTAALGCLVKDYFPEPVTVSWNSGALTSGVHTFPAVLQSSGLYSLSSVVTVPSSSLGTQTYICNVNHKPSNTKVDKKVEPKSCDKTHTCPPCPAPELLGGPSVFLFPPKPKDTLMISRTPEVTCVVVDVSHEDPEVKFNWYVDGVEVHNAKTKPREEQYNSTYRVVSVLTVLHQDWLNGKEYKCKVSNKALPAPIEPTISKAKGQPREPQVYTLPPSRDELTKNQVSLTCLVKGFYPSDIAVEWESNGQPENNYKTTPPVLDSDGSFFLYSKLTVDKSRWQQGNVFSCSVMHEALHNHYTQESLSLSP
light: B1 light
notes: homodimerized antibody, mutation in both H chains; also called K334_05P Ho Ab
B8: GpH7-B3 variant S337_11K/GpL16-k0 (antibody, human IgG1, kappa)
heavy: not shown
light: B1 light
notes: homodimerized antibody, mutation in both H chains; also called S337_11K Ho Ab
B9: GpH7-B3 variant K334_14T/GpL16-k0 (antibody, human IgG1, kappa)
heavy: not shown
light: B1 light
notes: homodimerized antibody, mutation in both H chains; also called K334_14T Ho Ab
B10: GpH7-B3 variant K326_19Q/GpL16-k0 (antibody, human IgG1, kappa)
heavy: not shown
light: B1 light
notes: homodimerized antibody, mutation in both H chains; also called K326_19Q Ho Ab
B11: GpH7-B3 variant K326_04F/GpL16-k0 (antibody, human IgG1, kappa)
heavy: not shown
light: B1 light
notes: homodimerized antibody, mutation in both H chains; also called K326_04F Ho Ab
B12: GpH7-B3 variant S337_16H/GpL16-k0 (antibody, human IgG1, kappa)
heavy: not shown
light: B1 light
notes: homodimerized antibody, mutation in both H chains; also called S337_16H Ho Ab
B13: GpH7-B3 variant Y300_07I/GpL16-k0 (antibody, human IgG1, kappa)
heavy: not shown
light: B1 light
notes: homodimerized antibody, mutation in both H chains; also called Y300_07I Ho Ab
B14: GpH7-B3 variant Y300_16H/GpL16-k0 (antibody, human IgG1, kappa)
heavy: not shown
light: B1 light
notes: homodimerized antibody, mutation in both H chains; also called Y300_16H Ho Ab
B15: GpH7-B3 variant S239_10E/GpL16-k0 (antibody, human IgG1, kappa)
heavy: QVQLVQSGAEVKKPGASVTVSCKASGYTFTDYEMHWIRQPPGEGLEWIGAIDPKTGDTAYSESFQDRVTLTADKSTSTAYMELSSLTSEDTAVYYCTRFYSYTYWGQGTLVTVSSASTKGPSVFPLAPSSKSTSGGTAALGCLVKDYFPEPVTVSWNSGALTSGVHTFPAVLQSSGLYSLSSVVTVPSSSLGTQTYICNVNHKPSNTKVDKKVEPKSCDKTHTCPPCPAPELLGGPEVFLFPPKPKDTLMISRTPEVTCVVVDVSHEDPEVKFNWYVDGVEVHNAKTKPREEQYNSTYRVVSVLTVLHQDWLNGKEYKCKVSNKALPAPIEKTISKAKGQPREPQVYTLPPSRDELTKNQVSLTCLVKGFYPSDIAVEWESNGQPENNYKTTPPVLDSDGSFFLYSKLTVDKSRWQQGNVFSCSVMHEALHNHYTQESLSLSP
light: B1 light
notes: homodimerized antibody, mutation in both H chains; also called S239_10E Ho Ab
B16: GpH7-B3 variant S337_14T/GpL16-k0 (antibody, human IgG1, kappa)
heavy: not shown
light: B1 light
notes: homodimerized antibody, mutation in both H chains; also called S337_14T Ho Ab
B17: GpH7-B3 variant K326_06M/GpL16-k0 (antibody, human IgG1, kappa)
heavy: not shown
light: B1 light
notes: homodimerized antibody, mutation in both H chains; also called K326_06M Ho Ab
B18: GpH7-B3 variant I336_16H/GpL16-k0 (antibody, human IgG1, kappa)
heavy: not shown
light: B1 light
notes: homodimerized antibody, mutation in both H chains; also called I336_16H Ho Ab
B19: GpH7-B3 variant S267_18N/GpL16-k0 (antibody, human IgG1, kappa)
heavy: not shown
light: B1 light
notes: homodimerized antibody, mutation in both H chains; also called S267_18N Ho Ab
B20: GpH7-B3 variant K334_19Q/GpL16-k0 (antibody, human IgG1, kappa)
heavy: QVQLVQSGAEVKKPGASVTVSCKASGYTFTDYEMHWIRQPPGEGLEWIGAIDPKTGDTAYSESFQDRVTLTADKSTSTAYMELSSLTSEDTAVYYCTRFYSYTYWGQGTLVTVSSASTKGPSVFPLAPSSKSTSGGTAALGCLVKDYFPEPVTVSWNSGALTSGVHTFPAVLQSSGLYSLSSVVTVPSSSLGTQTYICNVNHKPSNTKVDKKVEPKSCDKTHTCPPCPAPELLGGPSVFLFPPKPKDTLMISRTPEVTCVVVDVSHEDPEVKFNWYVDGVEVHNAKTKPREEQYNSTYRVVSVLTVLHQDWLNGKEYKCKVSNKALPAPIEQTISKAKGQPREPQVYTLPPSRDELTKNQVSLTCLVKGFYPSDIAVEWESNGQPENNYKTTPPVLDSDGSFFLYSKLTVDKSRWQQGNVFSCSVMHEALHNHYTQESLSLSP
light: B1 light
notes: homodimerized antibody, mutation in both H chains; also called K334_19Q Ho Ab
B21: GpH7-B3 variant T335_02A/GpL16-k0 (antibody, human IgG1, kappa)
heavy: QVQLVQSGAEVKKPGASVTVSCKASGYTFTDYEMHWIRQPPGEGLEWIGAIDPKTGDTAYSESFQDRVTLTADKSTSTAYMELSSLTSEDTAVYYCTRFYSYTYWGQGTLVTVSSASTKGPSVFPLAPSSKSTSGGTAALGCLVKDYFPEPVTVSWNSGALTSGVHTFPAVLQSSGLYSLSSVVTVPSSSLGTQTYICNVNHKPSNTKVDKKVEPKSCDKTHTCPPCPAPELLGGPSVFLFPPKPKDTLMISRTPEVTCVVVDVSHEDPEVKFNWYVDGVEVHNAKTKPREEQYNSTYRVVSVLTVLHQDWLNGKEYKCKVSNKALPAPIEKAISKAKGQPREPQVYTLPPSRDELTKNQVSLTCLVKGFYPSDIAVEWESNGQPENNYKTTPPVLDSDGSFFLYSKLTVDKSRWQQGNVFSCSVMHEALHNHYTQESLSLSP
light: B1 light
notes: homodimerized antibody, mutation in both H chains; also called T335_02A Ho Ab
B22: GpH7-B3 variant K326_09D/GpL16-k0 (antibody, human IgG1, kappa)
heavy: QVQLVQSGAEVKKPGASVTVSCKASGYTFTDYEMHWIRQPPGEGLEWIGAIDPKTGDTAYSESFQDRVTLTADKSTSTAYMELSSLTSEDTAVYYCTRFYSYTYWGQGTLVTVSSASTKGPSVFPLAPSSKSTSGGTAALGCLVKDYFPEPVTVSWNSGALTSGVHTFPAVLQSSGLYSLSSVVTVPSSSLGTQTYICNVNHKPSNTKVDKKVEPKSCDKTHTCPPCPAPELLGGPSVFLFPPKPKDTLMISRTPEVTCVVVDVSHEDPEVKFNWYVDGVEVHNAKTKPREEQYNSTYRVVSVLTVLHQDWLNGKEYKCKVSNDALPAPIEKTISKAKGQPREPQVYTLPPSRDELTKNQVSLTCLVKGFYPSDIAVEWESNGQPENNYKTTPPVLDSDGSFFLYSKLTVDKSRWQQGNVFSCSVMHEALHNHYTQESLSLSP
light: B1 light
notes: homodimerized antibody, mutation in both H chains; also called K326_09D Ho Ab
B23: GpH7-B3 variant K326_07I/GpL16-k0 (antibody, human IgG1, kappa)
heavy: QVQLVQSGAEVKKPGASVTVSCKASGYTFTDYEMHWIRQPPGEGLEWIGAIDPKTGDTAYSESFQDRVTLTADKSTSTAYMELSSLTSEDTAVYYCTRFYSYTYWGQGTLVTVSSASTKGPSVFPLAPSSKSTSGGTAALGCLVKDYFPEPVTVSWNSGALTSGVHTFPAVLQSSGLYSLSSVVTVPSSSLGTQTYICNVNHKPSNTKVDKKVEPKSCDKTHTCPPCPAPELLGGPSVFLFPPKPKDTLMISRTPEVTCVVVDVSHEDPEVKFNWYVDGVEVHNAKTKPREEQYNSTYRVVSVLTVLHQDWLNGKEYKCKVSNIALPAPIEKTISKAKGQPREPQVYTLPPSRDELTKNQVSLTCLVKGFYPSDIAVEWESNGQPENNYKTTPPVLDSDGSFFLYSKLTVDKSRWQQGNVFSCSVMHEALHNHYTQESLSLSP
light: B1 light
notes: homodimerized antibody, mutation in both H chains; also called K326_07I Ho Ab
B24: GpH7-B3 variant K334_07I/GpL16-k0 (antibody, human IgG1, kappa)
heavy: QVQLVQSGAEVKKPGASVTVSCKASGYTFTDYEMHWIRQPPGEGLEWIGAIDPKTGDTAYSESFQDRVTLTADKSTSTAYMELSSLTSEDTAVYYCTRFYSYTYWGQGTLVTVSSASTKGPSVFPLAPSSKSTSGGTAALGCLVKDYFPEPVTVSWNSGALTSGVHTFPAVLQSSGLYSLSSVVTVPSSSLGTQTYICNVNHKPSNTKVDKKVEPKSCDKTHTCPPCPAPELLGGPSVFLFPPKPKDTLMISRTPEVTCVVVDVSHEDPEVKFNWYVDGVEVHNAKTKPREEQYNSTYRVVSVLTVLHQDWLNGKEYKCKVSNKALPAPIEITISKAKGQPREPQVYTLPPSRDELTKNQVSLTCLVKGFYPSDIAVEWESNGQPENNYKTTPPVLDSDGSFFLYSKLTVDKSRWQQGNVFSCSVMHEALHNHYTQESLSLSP
light: B1 light
notes: homodimerized antibody, mutation in both H chains; also called K334_07I Ho Ab
B25: GpH7-B3 variant K334_09D/GpL16-k0 (antibody, human IgG1, kappa)
heavy: not shown
light: B1 light
notes: homodimerized antibody, mutation in both H chains; also called K334_09D Ho Ab
B26: GpH7-B3 variant S267_10E/GpL16-k0 (antibody, human IgG1, kappa)
heavy: not shown
light: B1 light
notes: homodimerized antibody, mutation in both H chains; also called S267_10E Ho Ab
B27: GpH7-B3 variant K334_03V/GpL16-k0 (antibody, human IgG1, kappa)
heavy: not shown
light: B1 light
notes: homodimerized antibody, mutation in both H chains; also called K334_03V Ho Ab
B28: GpH7-B3 variant T335_01G/GpL16-k0 (antibody, human IgG1, kappa)
heavy: not shown
light: B1 light
notes: homodimerized antibody, mutation in both H chains; also called T335_01G Ho Ab
B29: GpH7-B3 variant P271_10E/GpL16-k0 (antibody, human IgG1, kappa)
heavy: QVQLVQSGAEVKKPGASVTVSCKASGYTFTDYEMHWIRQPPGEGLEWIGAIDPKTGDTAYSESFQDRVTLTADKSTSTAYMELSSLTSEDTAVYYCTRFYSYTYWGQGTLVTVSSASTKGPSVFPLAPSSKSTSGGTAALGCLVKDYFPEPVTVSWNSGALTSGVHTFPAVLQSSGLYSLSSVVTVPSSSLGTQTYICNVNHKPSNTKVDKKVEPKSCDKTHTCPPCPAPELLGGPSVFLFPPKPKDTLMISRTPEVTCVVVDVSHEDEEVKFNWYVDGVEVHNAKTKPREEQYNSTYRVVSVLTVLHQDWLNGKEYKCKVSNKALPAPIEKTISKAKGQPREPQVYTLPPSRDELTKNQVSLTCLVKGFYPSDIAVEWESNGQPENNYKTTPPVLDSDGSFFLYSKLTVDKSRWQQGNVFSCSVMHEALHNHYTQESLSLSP
light: B1 light
notes: homodimerized antibody, mutation in both H chains; also called P271_10E Ho Ab
B30: GpH7-B3 variant S267_06M/GpL16-k0 (antibody, human IgG1, kappa)
heavy: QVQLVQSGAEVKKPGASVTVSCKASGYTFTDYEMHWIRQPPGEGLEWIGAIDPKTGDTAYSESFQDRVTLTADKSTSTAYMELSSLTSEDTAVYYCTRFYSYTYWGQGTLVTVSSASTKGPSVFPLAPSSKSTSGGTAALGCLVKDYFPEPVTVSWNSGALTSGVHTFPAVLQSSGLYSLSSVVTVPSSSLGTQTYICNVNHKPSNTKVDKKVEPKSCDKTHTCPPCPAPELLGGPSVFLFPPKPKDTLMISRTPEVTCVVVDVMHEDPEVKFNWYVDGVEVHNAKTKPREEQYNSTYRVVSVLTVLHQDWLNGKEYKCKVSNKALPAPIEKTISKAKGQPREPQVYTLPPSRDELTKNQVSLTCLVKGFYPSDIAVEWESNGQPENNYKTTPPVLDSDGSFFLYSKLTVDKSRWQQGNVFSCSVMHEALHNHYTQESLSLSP
light: B1 light
notes: homodimerized antibody, mutation in both H chains; also called S267_06M Ho Ab

target: T1, FcγRIa extracellular domain with C-terminal His tag (human, UniProt P12314 16-292); assay: SPR (Biacore), relative FcγRIa binding, GpH7-B3/GpL16-k0 (HoCon Ab) = 100
T1 construct: extracellular domain; soluble analyte in Biacore; also called FcgRI; CD64
T1 sequence (P12314 16-292): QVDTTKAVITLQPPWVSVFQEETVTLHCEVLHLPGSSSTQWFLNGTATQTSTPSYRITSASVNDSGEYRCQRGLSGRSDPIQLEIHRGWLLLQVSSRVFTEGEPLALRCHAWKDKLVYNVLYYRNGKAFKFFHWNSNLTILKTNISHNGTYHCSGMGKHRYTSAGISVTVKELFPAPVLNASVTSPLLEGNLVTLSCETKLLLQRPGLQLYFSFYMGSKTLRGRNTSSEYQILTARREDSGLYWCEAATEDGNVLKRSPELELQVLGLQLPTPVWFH

Row | Ho/Con_1a | Binder
1 | 105 % of control | B1
2 | 106 % of control | B2
3 | 106 % of control | B3
4 | 104 % of control | B4
5 | 106 % of control | B5
6 | 106 % of control | B6
7 | 106 % of control | B7
8 | 105 % of control | B8
9 | 106 % of control | B9
10 | 105 % of control | B10
11 | 102 % of control | B11
12 | 105 % of control | B12
13 | 109 % of control | B13
14 | 111 % of control | B14
15 | 106 % of control | B15
16 | 106 % of control | B16
17 | 104 % of control | B17
18 | 114 % of control | B18
19 | 107 % of control | B19
20 | 106 % of control | B20
21 | 105 % of control | B21
22 | 106 % of control | B22
23 | 102 % of control | B23
24 | 107 % of control | B24
25 | 108 % of control | B25
26 | 107 % of control | B26
27 | 105 % of control | B27
28 | 106 % of control | B28
29 | 103 % of control | B29
30 | 106 % of control | B30
